{
  "source": "patent US20210293791A1",
  "about": "“BACTERIAL VAGINOSIS DIAGNOSTIC” (MOLOGIC LTD, priority 2018, published 2021)",
  "key": {"[1]": {"tested_on": "antisera CF1064", "settings": "ELISA and lateral flow, FIG. 19", "source_text": "To refine the peptide design and remove peripheral interactions of antibodies not binding the galactose moiety in the peptide, the original sequence MOL136 was truncated to a shorter sequence MOL600: […]"}, "[2]": {"tested_on": "T1, MOL600c: NH2-Cyc-DAla-Ser[Gal-Sial]-DAla-Arg-PEG-Biotin", "T1 sequence": "XASAR"}, "[3]": {"tested_on": "T2, MOL136c: biotin-PEG-Asp-Glu-DSer-Nva-Cyc-DAla-Ser[Gal-Sial]-DAla-Arg-Phe-DSer-Val-OH", "T2 sequence": "DESXXASARFSV"}, "[4]": {"tested_on": "sialidase", "settings": "25 U/ml sialidase in PBST for 5 minutes", "experimental": "Thus, a capture zone was first formed on each lateral flow test strip using 1.5 mg/ml streptavidin. Then, 3 μl of each peptide (12.5 ng/ml peptide in PBST) was mixed with 10 μl of gold-labelled CF1064 and 15 μl of running buffer (0.5 M Tris at pH 7.5+3% BSA+0.5% Triton X-100) before each sample was run along a separate lateral flow test strip. A negative control in which no peptide was added was also run as a negative control. 15 μl of running buffer wash was then run along each lateral flow test strip.\nThe procedure described in Example 4B was repeated in the presence of 25 U/ml sialidase. A sample in which sialidase was absent was used as a negative control. A further negative control was run in which no peptide and no sialidase was included in the sample. As a positive control, MOL136 was used in place of MOL136c in the presence of 25 U/ml sialidase."}, "[5]": {"tested_on": "MOL136 and MOL136c", "assay": "Lateral flow assay with gold-labelled antisera on streptavidin capture zone", "format": "binding", "settings": "gold-labelled CF1064; peptide 1.3 ng/ml (38 μg per strip)", "experimental": "CF1064 was conjugated to gold particles in optimised conditions (15 μg/ml loading in 10 mM sodium borate buffer; pH 8.0) and assayed against MOL136 and MOL136c at a final concentration of 1.3 ng/ml (38 μg per strip). Thus, a capture zone was first formed on each lateral flow test strip using 1.5 mg/ml streptavidin. Then, 3 μl of each peptide (12.5 ng/ml peptide in PBST) was mixed with 10 μl of gold-labelled CF1064 and 15 μl of running buffer (0.5 M Tris at pH 7.5+3% BSA+0.5% Triton X-100) before each sample was run along a separate lateral flow test strip. A negative control in which no peptide was added was also run as a negative control. 15 μl of running buffer wash was then run along each lateral flow test strip."}, "[6]": {"target": "T3, MOL600: NH2-Cyc-DAla-Ser[Gal]-DAla-Arg-PEG-Biotin (reading uncertain; also: printed as NH2-Cyc-DAla-Ser[Gal]-DAla-Arg-PEG-Biotin)", "T3 construct": "MOL600 is its de-sialylated form; Immobilised on a streptavidin biosensor through biotin", "T3 peptide": "H-[Ac6c][dA]S(Gal)[dA]R-{PEG-Biotin′}", "assay": "bio-layer interferometry, peptide immobilised on streptavidin biosensor, antibody at 1, 2, 4, 8 or 16 nM", "method": "(§1) MOL615 was biotinylated to yield MOL600 (sequence provided in Example 7) and antibody binding affinity and kinetics was measured using bio-inferometry. […] Binding of the antibody was detected by a shift in the reflected light interference."}, "[7]": {"tested_on": "MOL600", "assay": "Antibody binding affinity and kinetics by bio-inferometry, peptide immobilised on biosensor by streptavidin/biotin", "method": "as §1"}, "[8]": {"settings": "antibody at 1, 2, 4, 8 or 16 nM, MOL600 immobilised"}},
  "note": "Non-standard residues stand in square brackets, D forms with d. Primed or numbered codes have the meaning given here. Gal = galactose on Ser (no sialyl group); Biotin′ = not defined here; Ac6c = NC1(C(=O)O)CCCCC1; PEG = not defined here",
  "data": [
    {"molecule": "NH2—Cyc-DAla-Ser[Gal]-DAla-Arg-PEG-Biotin [MOL600]", "values": [
      {"measurement": "performance compared with MOL136/MOL136c", "setting": "[1]", "value": "significant improvement in performance"}
    ]},
    {"molecule": "sialidase", "values": [
      {"measurement": "lateral flow test line signal", "setting": "[2]", "value": "signal has been recovered by spiking in sialidase"},
      {"measurement": "lateral flow test line signal with gold-labelled CF1064", "setting": "[3]", "value": "A clear positive signal was observed in respect of MOL136c incubated in the presence of 25 U/ml sialidase in PBST for 5 minutes"}
    ]},
    {"molecule": "NH2—Cyc-DAla-Ser[Gal-Sial]-DAla-Arg-PEG-Biotin [MOL600c]", "values": [
      {"measurement": "performance compared with MOL136/MOL136c", "setting": "[1]", "value": "significant improvement in performance"}
    ]},
    {"molecule": "biotin-PEG-Asp-Glu-DSer-Nva-Cyc-DAla-Ser[Gal-Sial]-DAla-Arg-Phe-DSer-Val-OH [MOL136c]", "values": [
      {"measurement": "lateral flow signal after sialidase incubation", "setting": "[4]", "value": "clear positive signal"},
      {"measurement": "signal in the capture zone (visible line on the test strip)", "setting": "[5]", "value": "little/no signal"}
    ]},
    {"molecule": "biotin-PEG-Asp-Glu-DSer-Nva-Cyc-DAla-Ser[Gal]-DAla-Arg-Phe-DSer-Val-OH [MOL136]", "values": [
      {"measurement": "signal in the capture zone (visible line on the test strip)", "setting": "[5]", "value": "clearly detected"}
    ]},
    {"molecule": "monoclonal antibody 125.1 (antibody, V domains shown, Pyro-Glu(Q) at N-terminal of heavy chain; N-linked glycosylation at constant region N@285; additional O-linked glycosylation site between positions 213 and 216 (partly occupied); C-terminal lysine eliminated, Rabbit monoclonal from immunisation with KLH-MOL616; Gamma heavy chain and Kappa light chain) VH: QSVEESGGRLVTPGTPLTLTCTVSGFSLSSYSMDWVRQAPGKGLEWVGGITTTLHTFYATWAKGRFTISKTSSTTVDLKMTSLTTDDAATYFCARGGSSVIWGPGTLVTVSS VL: ALVMTQTPSPVSAAVGGTVTISCQSSQSVYGNNHLNWHQQKRGQPPKQLIGSASRLASGVPSRFKGSGSGTQFTLTISGVQCDDAATYYCQGSYYNGAWYVAFGGGTELEIKR", "values": [
      {"measurement": "Kd", "setting": "[6]", "value": 7.9, "unit": "nM"},
      {"measurement": "koff", "setting": "[6]", "value": 0.000427, "unit": "s⁻¹"},
      {"measurement": "kon", "setting": "[6]", "value": 54100, "unit": "M⁻¹ s⁻¹"}
    ]},
    {"molecule": "antibody 125.1: rabbit monoclonal antibody, heavy chain SEQ ID NO: 7, light chain SEQ ID NO: 8, specific for Cyc-DAla-Ser[Gal]-DAla-Arg (antibody, listed as Oryctolagus cuniculus) heavy: QSVEESGGRLVTPGTPLTLTCTVSGFSLSSYSMDWVRQAPGKGLEWVGGITTTLHTFYATWAKGRFTISKTSSTTVDLKMTSLTTDDAATYFCARGGSSVIWGPGTLVTVSSGQPKAPSVFPLAPCCGDTPSSTVTLGCLVKGYLPEPVTVTWNSGTLTNGVRTFPSVRQSSGLYSLSSVVSVTSSSQPVTCNVAHPATNTKVDKTVAPSTCSKPTCPPPELLGGPSVFIFPPKPKDTLMISRTPEVTCVVVDVSEDDPEVQFTWYINNEQVRTARPPLREQQFNSTIRVVSTLPIAHEDWLRGKEFKCKVHNKALPAPIEKTISKARGQPLEPKVYTMGPPREELSSRSVSLTCMINGFYPSDISVEWEKNGKAEDNYKTTPAVLDSDGSYFLYSKLSVPTSEWQRGDVFTCSVMHEALHNHYTQKSISRSPG light: ALVMTQTPSPVSAAVGGTVTISCQSSQSVYGNNHLNWHQQKRGQPPKQLIGSASRLASGVPSRFKGSGSGTQFTLTISGVQCDDAATYYCQGSYYNGAWYVAFGGGTELEIKRDPVAPSVLLFPPSKEELTTGTATIVCVANKFYPSDITVTWKVDGTTQQSGIENSKTPQSPEDNTYSLSSTLSLTSAQYNSHSVYTCEVVQGSASPIVQSFNRGDC", "values": [
      {"measurement": "binding specificity for MOL600 compared to the sialylated form MOL600c", "setting": "[7]; FIG. 27", "value": "clearly specific for MOL600"},
      {"measurement": "Koff", "setting": "[7]; [8]", "value": 0.000427, "unit": "s⁻¹"},
      {"measurement": "Kon", "setting": "[7]; [8]", "value": 54080, "unit": "M⁻¹ s⁻¹"}
    ]}
  ]
}
